# Test results taken from patent US20210292396A1.
# Columns and labels:
# Assay in all cases: cell-based or functional assay
# [1] = target: HIV Env of isolate DU172.17 (HIV)
# [2] = target: HIV Env of isolate CAP45.G3 (HIV)
# [3] = target: HIV Env of isolate CNE7 (HIV)
# [4] = target: Env of HIV isolate CNE15 (clade BC) (HIV)
# [5] = target: HIV Env of isolate P1981.C5.3 (HIV)
# [6] = target: HIV Env of isolate 0921.v2.c14 (HIV)
# [7] = target: Env of HIV isolate 3337.v2.c6 (clade CD) (HIV)
# [8] = target: Env of HIV isolate BJOX002000.03.2 (clade BC) (HIV)
# [9] = target: Env of HIV isolate CAP256.206.C9 (clade C) (HIV)
# [10] = target: HIV Env of isolate M02138 (HIV)
# [11] = target: HIV Env of isolate C4118.09 (HIV)
# [12] = target: Env of HIV isolate CH117.4 (clade BC) (HIV)
# [13] = target: Env of HIV isolate 398-F1.F6.20 (clade A) (HIV)
# [14] = target: HIV Env of isolate ZM215.8 (HIV)
# [15] = target: Env of HIV isolate P0402.c2.11 (clade G) (HIV)
# [16] = target: Env of HIV isolate CNE8 (clade AE) (HIV)
# [17] = target: Env of HIV isolate 231965.c01 (clade D) (HIV)
# Envelope of SVA.MLV = target: Envelope of SVA.MLV
# [18] = target: Env of HIV isolate C1080.c3 (clade AE) (HIV)
# [19] = target: Env of HIV isolate TZA125.17 (clade C) (HIV)
# [20] = target: HIV Env of isolate DU422.01 (HIV)
# [21] = target: HIV Env of isolate CAP210.E8 (HIV)
# [22] = target: HIV Env of isolate 0260.v5.c36 (HIV)
# [23] = target: HIV Env of isolate 3337.v2.c6 (HIV)
# [24] = target: Env of HIV isolate ZM215.8 (clade C) (HIV)
# [25] = target: Env of HIV isolate HT593.1 (clade B) (HIV)
# [26] = target: HIV Env of isolate 6471.v1.c16 (HIV)
# [27] = target: HIV Env of isolate CH119.10 (HIV)
# [28] = target: HIV Env of isolate 5768.04 (HIV)
# [29] = target: Env of HIV isolate WITO.33 (clade B) (HIV)
# [30] = target: HIV Env of isolate T280-5 (HIV)
# [31] = target: Env of HIV isolate X2131.C1.B5 (clade G) (HIV)
# [32] = target: HIV Env of isolate 191821.E6.1 (HIV)
# [33] = target: HIV Env of isolate BJOX002000.03.2 (HIV)
# [34] = target: Env of HIV isolate 0077.v1.c16 (clade C) (HIV)
# [35] = target: Env of HIV isolate C3347.c11 (clade AE) (HIV)
# [36] = target: HIV Env of isolate X2131.C1.B5 (HIV)
# [37] = target: Env of HIV isolate DU156.12 (clade C) (HIV)
# [38] = target: Env of HIV isolate CNE12 (clade B) (HIV)
# [39] = target: Env of HIV isolate 00836-2.5 (clade C) (HIV)
# [40] = target: HIV Env of isolate CNE12 (HIV)
# [41] = target: HIV Env of isolate 6785.v5.c14 (HIV)
# [42] = target: Env of HIV isolate Q769.h5 (clade A) (HIV)
# [43] = target: HIV Env of isolate 3016.v5.c45 (HIV)
# [44] = target: HIV Env of isolate Q769.d22 (HIV)
# [45] = target: Env of HIV isolate CE703010217.B6 (clade C) (HIV)
# [46] = target: HIV Env of isolate X1193.c1 (HIV)
# [47] = target: HIV Env of isolate 426c (HIV)
# [48] = target: HIV Env of isolate ZM55.28a (HIV)
# [49] = target: HIV Env of isolate T255-34 (HIV)
# [50] = target: Env of HIV isolate ZM109.4 (clade C) (HIV)
# [51] = target: Env of HIV isolate BL01.DG (clade B) (HIV)
# [52] = target: Env of HIV isolate 89.6.DG (clade B) (HIV)
substance,measurement,setting,value
PGT121 (antibody),"IC80, pseudovirus neutralization",[1],0.41 µg/mL
same,"IC80, pseudovirus neutralization",[2],> 50 µg/mL
same,"IC80, pseudovirus neutralization",[3],0.121 µg/mL
same,"IC50, pseudovirus neutralization",[4],6.64 µg/mL
same,"IC80, pseudovirus neutralization",[5],0.013 µg/mL
same,"IC80, pseudovirus neutralization",[6],> 50 µg/mL
same,"IC50, pseudovirus neutralization",[7],1.39 µg/mL
same,"IC50, pseudovirus neutralization",[8],0.026 µg/mL
same,"IC50, pseudovirus neutralization",[9],0.02 µg/mL
same,IC80,[10],> 50 µg/mL
same,IC80,[11],> 50 µg/mL
same,"IC50, pseudovirus neutralization",[12],> 50 µg/mL
same,"IC50, pseudovirus neutralization",[13],0.0223 µg/mL
same,"IC80, pseudovirus neutralization",[14],0.084 µg/mL
same,"IC50, pseudovirus neutralization",[15],0.0123 µg/mL
same,"IC50, pseudovirus neutralization",[16],> 50 µg/mL
same,"IC50, pseudovirus neutralization",[17],> 50 µg/mL
same,"IC80, pseudovirus neutralization",Envelope of SVA.MLV,> 50 µg/mL
same,"IC50, pseudovirus neutralization",[18],> 50 µg/mL
same,"IC50, pseudovirus neutralization",[19],1.45 µg/mL
same,"IC80, pseudovirus neutralization",[20],0.176 µg/mL
same,"IC80, pseudovirus neutralization",[21],> 50 µg/mL
same,IC80,[22],0.159 µg/mL
same,"IC80, pseudovirus neutralization",[23],> 50 µg/mL
same,"IC50, pseudovirus neutralization",[24],0.0307 µg/mL
same,"IC50, pseudovirus neutralization",[25],> 50 µg/mL
same,"IC80, pseudovirus neutralization",[26],> 50 µg/mL
same,"IC80, pseudovirus neutralization",[27],0.0937 µg/mL
same,IC80,[28],0.917 µg/mL
same,"IC50, pseudovirus neutralization",[29],0.479 µg/mL
same,IC80,[30],0.038 µg/mL
same,"IC50, pseudovirus neutralization",[31],0.013 µg/mL
same,"IC80, pseudovirus neutralization",[32],> 50 µg/mL
same,IC80,[33],0.068 µg/mL
same,"IC50, pseudovirus neutralization",[34],> 50 µg/mL
same,"IC50, pseudovirus neutralization",[35],> 50 µg/mL
same,"IC80, pseudovirus neutralization",[36],0.036 µg/mL
same,"IC50, pseudovirus neutralization",[37],0.0147 µg/mL
same,"IC50, pseudovirus neutralization",[38],0.0153 µg/mL
same,"IC50, pseudovirus neutralization",[39],> 50 µg/mL
same,IC80,[40],0.0347 µg/mL
same,"IC80, pseudovirus neutralization",[41],0.108 µg/mL
same,"IC50, pseudovirus neutralization",[42],> 50 µg/mL
same,"IC80, pseudovirus neutralization",[43],> 50 µg/mL
same,IC80,[44],> 50 µg/mL
same,"IC50, pseudovirus neutralization",[45],7 ng/mL
same,"IC80, pseudovirus neutralization",[46],0.147 µg/mL
same,"IC80, pseudovirus neutralization",[47],> 50 µg/mL
same,"IC80, pseudovirus neutralization",[48],0.216 µg/mL
same,IC80,[49],> 50 µg/mL
same,"IC50, pseudovirus neutralization",[50],1.96 µg/mL
same,"IC50, pseudovirus neutralization",[51],19.6 µg/mL
same,"IC50, pseudovirus neutralization",[52],0.0337 µg/mL
